This passage reports EC50 and IC50 results from patent US20210032343A1.

The target in one experiment is HER2 (human) (UniProt P04626). As to the kind of experiment: ELISA. On the technique in general: In an ELISA, binding on a coated surface is turned into a signal by an enzyme label.
For the next experiment, the target named is PD-1 (human) (UniProt Q15116). As to the kind of experiment: competition ELISA; blocking PD-1/PD-L2.
PD-1 (human), sequence (Q15116 25-167): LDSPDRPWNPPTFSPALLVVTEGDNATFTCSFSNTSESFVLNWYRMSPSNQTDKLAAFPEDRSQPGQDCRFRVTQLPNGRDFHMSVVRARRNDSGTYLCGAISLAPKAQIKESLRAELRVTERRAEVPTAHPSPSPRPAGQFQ

Regarding HER2, the EC50 – broadly, the concentration needed to bring the measured effect to its halfway point – with HER2 (human) amounted to 120 pM. The IC50 (commonly the midpoint of a concentration-inhibition curve) with PD-1 (human) is > 20000 pM.
